21 sequences from the DeepSol protein solubility set can be followed below.

This data set in a line: soluble on expression in E. coli; label from the status in PepcDB or PDB records.
On to “METMKSKANCAQNPNCNIMIFHPTKEEFNDFDKYIAYMESQGAHRAGLAKIIPPKEWKARETYDNISEILIATPLQQVASGRAGVFTQYHKKKKAMTVGEYRHLANSKKYQTPPHQNFEDLERKYWKNRIYNSPIYGADISGSLFDENTKQWNLGHLGTIQDLLEKECGVVIEGVNTPYLYFGMWKTTFAWHTEDMDLYSINYLHLGEPKTWYVVPPEHGQRLERLARELFPGSSRGCGAFLRHKVALISPTVLKENGIPFNRITQEAGEFMVTFPYGYHAGFNHGFNCAEAINFATPRWIDYGKMASQCSCGEARVTFSMDAFVRILQPERYDLWKRGQDRAVVDHMEPRVPA”, for which the “soluble on expression in E. coli” value is given as “soluble”.
Consider “METPETRFCKESKVVKTSRVFPLDTNNHNTLFGGKLMSYIDDIASISAARHCRRETVTASMDSVDFLKPIGQKDSVCLESYVTWVGTSSMEVFVKVIKEHLMTGERELAATSFLTFVALDSNGKPVPVPRVVPETEEEIMLHNTAVQRANERKNRKRHSQALANALGTDKPWVNVKPKTLEHHHHHH”, for which the “soluble on expression in E. coli” value is on record as “not soluble”.
Under “METQIHQLEQEAYTAVLRAFKAQSDAISWEKESLITELRKELRVSDDEHRELLSRVNKDDTIQRIRDWRQGGASQITRHATIQPFDVLPSPTFSAARKKQKTFPSYNPSIGATGNRSFNNRLVSSGISGNESAEALIGRKVWTKWPEDNHFYEAIITQYNADEGRHALVYDIHAANETWEWVDLKEIPPEDIRWDGEESGVALNIGHGSASFRGNRRGQIHGGRGRGPRIHQPRRELVPPPTQQNGSGGRRTSSDDIELFNTDSLVKEVERVFDSTHPDPLELDKAKKMLKEHEQALIAAIARLADTSDGEMDGDPPYSHDHPMPQG” stands “not soluble”.
Under “METTSVFRADFLSELDAPAQAGTESAVSGVEGLPPGSALLVVKRGPNAGSRFLLDQAITSAGRHPDSDIFLDDVTVSRRHAEFRLENNEFNVVDVGSLNGTYVNREPVDSAVLANGDEVQIGKFRLVFLTGPKQGEDLEHHHHHH” stands “not soluble”; under “METTWDLTPLFPGLESPEFQRAWEGLKGRIGELKGLLEREAPLPEVLAALDAFLEEATPLRAYLYARYSADTRDEAALAKLSELEILFLDFQRLRPRLTRYLALKDPEEAGPHRLLVEEAKEEALHMMPEGEEVLAAELSLSGRAAWDKLHESLTSQITAVVDGEEMPITKVRNLYFHPEEEVRKKAYEAELKAWEAHEVPLAFALNGVKGEASVLNRRRGYRDDLEPTLHENRITRKALKAMQEAVGESLPLFRRYFLLKARALGKERLDWWDLFAPLGRGRRWSLEEARAFIPAKLAALVPNAAKVAEMAFHERWMDLLPRKGKVGGAYCMARGGGKSLILANYEESFESVSTLAHELGHAYHNFALKEAPASLRRVPMTLAETASIMNETLVVEAALKEASPEEGLLILDAYLQGAAQVVVDIHSRFLFESWVFQRRKARELSPREFKELMLKAQEEAYGEALATRHPYMWAVKGHYYGADFYNYPYTFGLLFGLAVYQEAKEDPGFAGRYEALLAESGRYRAKELALRFGFDLESVDFWRRGIRVLEEKVAQLERMISP”, “soluble”; under “MEVDPGSDDVEADRETRAQKLKLKRNVKFRAQMRRFDEYCGVTNLTVDDLNWPLISGIPLQRQRLTGATYYDDSLLDQNPWDEFSIDRFLEITSIQLITAGAGYERNDEITRFVFQRTMKTIVTYCNFMYDLARRNGKVQITRFELQDLIHRDEFRFYMYFRQFLPNPDPNCTAFSNHYTSLLHTLYFNIPGMPQFWNNSQMYNYAATRGQRLVQNIAAFYPPEYFWNEDESKYHTTFVVPRGTEFSKFYARRFHEALGMPPLENEIITVLDWLAKLCILEIVYHTTIWCDITGFGGLPRIEHYRLAMENVEDIIFDLAIDDFSISRLQLQISPFEISRYSPLDVSGYYETIKRKKDIEEYQNRFYEVHYSDDVRIMNVYATDCSRKR”, “not soluble”.
In the case of “MEVLGITEKALNYYRENVKDNKTITPDQALLKMIRNVLLVKETHPERVKKRLFCTEYAYGNMIIKVNRKKQVFEIVNKSGCFSDQNDWKFPKRRYIELSKELGIKDCKFRKITYSKKNHNKQKLEHHHHHH”, the “soluble on expression in E. coli” value is “soluble”.
Under “MEYRIERDTMGEVRVPADKYWGAQTQRSLENFRIGTDRFRMPLEIIRAYGMLKKAAARANLELGELPEEIAKAIIQAAEEVVQGKWDDHFPLVVFQTGSGTQTNMNVNEVIANRASEILGKPLGSKYVHPNDHVNRGQSSNDTFPTAMYVAVALALHQRLYPAVEGLIRTFTAKAQAFDQIVKVGRTHLMDAVPITLGQEIGSWAAQLKTTLAAVKEMEKGLYNLAIGGTAVGTGLNAHPRFGELVAKYLAEETGLPFRVAENRFAALAAHDELVNVMGAIRTLAGALMKIGNDVRWLASGPYAGIGEITIPANEPGSSIMPGKVNPTQVEALTMVVVRVYGNDHTVAFAGSQGNFQLNVYKPVMAYSTLESINLLADAVASFDAHLAQGIEPNLERIEEHLQKNPMLATALNKAIGYDKAAEIVKKALKEKKTLKQAALELGYLTEEEFDRIVVPMRLAKPHEGA” stands “soluble”; under “MEYRLFGQVTRALMDASQAPADDIATRIDALDWNRKVWSALATDCALPENQLPMELRASIISLSLWVGRHSSAVMRKEEDFEPLIEINRMIMQGLAGRADAA”, “not soluble”; under “MFALVLFVCYLDGGCEDIVVDVYNTEQQCLYSMSDQRIRQGGCFPIEDFIDGFWRPAQEYGDFLEHHHHHH”, “soluble”.
As for “MFEIATTPMATTVVISGDLDLASRDQFLEVAARLTSLRRSLLTIDMCDVRFMDSTGAAFLISLAETGQRRGWLTVLRGSSDAHRFVLDICGATHLFRFDTEHYCHHTASPA”, the entry is “not soluble”.
Under “MFEKWIGLTLLLNSLAYPCQKVTISFKQYENLLHIHQKGCDNEVMCRTLISIALLESSLGLNNRREKSLKDTSYSMFHITLNTAKKFYPTYSKTLLKFKLLNDVGFAIQLAKQILKENFDYYKQKHPNKSVYQLVEMAIGAYNGGMKHNPNGAYVKKFRCIYSQVRYNE” stands “not soluble”; under “MFFIKDLSLNITLHPSFFGPRMKQYLKTKLLEEVEGSCTGKFGYILCVLDYDNIDIQRGRILPTDGSAEFNVKYRAVVFKPFKGEVVDGTVVSCSQHGFEVQVGPMKVFVTKHLMPQDLTFNAGSNPPSYQSSEDVITIKSRIRVKIEGCISQVSSIHAIGSIKEDYLGAI”, “soluble”.
Consider “MFFMYFTNYGYRLNQIKKGSDQHWLFLPGGPGLGSEYLASFCDKLTLQGTVSLVDFPKDGNNSEGQLDFVSWQEGLISLLKSLNKPILVTHSFSGMFTLNFPEIENHLSGLVLMNTTTTNSFFQHVNEMRQKHNLPDLVPAASQYHLYPSNETYKKFWDTYKHYCFTQEELPIGEQMMELFAYNNESYHYAIEHFYNDFHYKWHPQTIPTMTIASELDYICPPAIFIQDKNFQCQNVINKVIYKAGHCPWILHLEQVQKCFDEFSGMIQEINIERIL”, for which the “soluble on expression in E. coli” value was “not soluble”.
Consider “MFGGGSSGPVDTTLYTTLNVRPDASQADIKKSYFKLAKEYHPDKNPDHGDKFKEISFAYEVLSSPEKRRLYDARGLEGVQGGGAGGGGGGFPGGLFSHFFGGAGGDDDDDDDDMGGHPFGGLFGGMGGMGRGGPRRRKFQDTVHPLNVTLEELYVGKTSKLKLSKKALCKTCEGSGGKKGEKYKCDACRGRGVKTIVQQIGPGMLQQMQVHCDACKGSGGKVPAGDKCKGCHGEKYENVSKILEVHVLPGMKHNDKITFKGDGDQSDPDGEPGDVVIVIQQKDHDIFKRDGDDLHMTKKLSLNEALCGYNFLIKHLDGHPLVLSSKQGDVIKPGVIRGVLGKGMPNKKYPELKGNLFVEFEVEFPKEHFLDDEKAYAVLKSCFPTSKVVNVTPAAAEVSLMEYDEKKYSRGRGGDAYNEDSDEEQHGGHHGQGVRCQHQ”, for which the “soluble on expression in E. coli” value is on record as “not soluble”.
As for “MFIEVEKFVEARTNSIAQLLKAIDNDALVSGEVTKGPRTAAQRLPRHMRRRAMAYDIRRFPRTMREFAAAHLISKHAKKCPSRFARRKSANSRTKFGRSTSTKGIWLSTHVWHAKRFRMIQKWGFKLADRSFQRGFRAVLRDSNKNCVIRDRSYYTCVTIQCTDAYSKISQFSQKGCRGQSSRDEEEECHQLYMPGKYPFGYIGPARFQRLSGDKVHIWIHPSSKLQFMKALLEYYNLEKQENTEEDLYKNSEIKVSIDAENICRFHLSGPKCLSKLRDSIRFVNDEKFSSEHNYFLSVSDSVFQSSRDGEVINLLIEDPRTTWDRKTVLKHKKVNKEADNERIRVSKFWNKEFREMAIEKRMADSEFHKQNSSKINGVISTEAKVPIILIIRNEGLKALDGADILIPEPFAKDFWVSLQRRGVRASGLRDEYAAHLESKALYYPLDDVGSEAGRESELAMKKELIEKYLGKPHNRRCKHWSAVSVKYPFEFKWDELSQDWNLSNKPRSEAFVCRDLQKLRIIEEAMKKGSGLEEFQEPGMLIPVKLQFFGRGRPKKYGMVCLPTDDDLISIRKNRNREIIQTPPEASSQDSDIVEAMEIEEITVKKNQGFMSLEAAASEKPINLKLLFEETTKLDDKTTKRKRVNRKKRESKKRRKIEQEKRKEEAEVEEVQKLATKYRFSANREIIGRLVAGEQSVLAGHGVGIGYICANTLSLIASNYHKSKTVVMVRNSTSKYYHPAYVTILKNATKI”, the entry is “not soluble”; as for “MFITFEGIDGSGKSTQIQLLAQYLEKRGKKVILKREPGGTETGEKIRKILLEEEVTPKAELFLFLASRNLLVTEIKQYLSEGYAVLLDRYTDSSVAYQGFGRNLGKEIVEELNDFATDGLIPDLTFYIDVDVETALKRKGELNRFEKREFLERVREGYLVLAREHPERIVVLDGKRSIEEIHRDVVREVKRRWKLDV”, “soluble”.
Under “MFKDKKILVIGGTGSIGQALIERILTENPAVIRVYSRDEYKQFLLAEKFRENANIRYLIGDVRDEDRLDRAMNDIDIVFNLAALKHVPACEYNPFEAVRTNVIGSQNVIACAMANKVKKVIYTSSDKAVSPTNTMGATKLLAERLMSSSNYSRGNTGTVFASVRFGNVMGTRGSVIPLFKQQVLEKGYITVTEPEMTRFMMSLSQAVELTIKACSIARGGEVFVLKMPVIRLKDLAEVIIEDMCKKNNIDPEKIEIKKIGLRPGEKMYEELMSEDESTKAVELNDMYVIMPPFENSYYINARKAVIGNYSSQKEKTLTKSQIRELLVREKLI” stands “not soluble”; under “MFKIKTIESLSDLTQLKKAYFDSSIVPLDGMWHFGFAPMAKHFGFYVNKNLVGFCCVNDDGYLLQYYLQPEFQLCSQELFTLISQQNSSVIGEVKGAFVSTAELNYQALCLDNSATFKVNSLMYQHNTKLADRNLEMIDMQIAGTEQLTAFVTFAAANIGAPEQWLTQYYGNLIERKELFGYWHKGKLLAAGECRLFDQYQTEYADLGMIVAQSNRGQGIAKKVLTFLTKHAATQGLTSICSTESNNVAAQKAIAHAGFTSAHRIVQFEFKHA”, “soluble”; under “MFKKLFGKGKEVQKDIAIYAPLTGEFVKIEDIPDPVFAQKMMGEGFGINPTEGEVVSPIAGRVDNVFPTKHAIGLKADNGLELLVHIGLDTVQLDGEGFEVLVSSGDEVNVGDPLVRFNLEYINNNAKSVISPIIITNTDQAASINIYDENAVIKGETKVIDVTMN”, “not soluble”.
For the sequence “MFKRLSRFLLPLVWIFTATTALADDTQINTMDPYSMVKSVANKTFDRFHKDKALIDADADHLKVIVREELMPYIDYKYASYKVLGQYLKESTEDQRNRFVDAFQGYLVTTYAQAFTEYTNQKVEFSPGSDFSNEKIVDVNVQIIEAGRPPIKLLFKARRLKDDSWKAFDLVAEGVSLLSSKQSEISNLIRQQGIEPVIKMLEERTKDKVTKQPKAGKLEHHHHHH”, the “soluble on expression in E. coli” value is “soluble”.
